The RNAGym collection of RNA variant scans (doi:10.7554/elife.90254)

B1: LINE1-mini (parent)
chain: GGCAGAGCUCAACACAGCGUGGCAAAGUGGCUGUGGCUAGACUGCC

Variants of: B1
Assay: self-cleavage, relative activity (ratio to wild type); higher = more cleavage; in vitro, sequencing; the parent is a self-cleaving ribozyme

Variant	self-cleavage
A14G G17A	0.17
A14G G17C	0.09
A14G G17U	0.09
A14G G35C	0.05
A14G G35A	0.07
A14G G35U	0.15
A14C U34G	0.26
A14C U34C	0.07
A14C U34A	0.07
A14G C31U	0.04
A14G C31G	0.04
A14G C31A	0.09
A14G G40U	0.12
A14G G40C	0.09
A14G G40A	0.1
A14C G33C	0.03
A14C G33A	0.06
A14C G33U	0.05
A14G C15A	0.08
A14G C15U	0.11
A14G C15G	0.08
A14G G19U	0.54
A14G G19C	0.25
A14G G19A	1.03

Variant	self-cleavage
A14C G44C	0.13
A14C G44A	0.07
A14C G44U	0.07
A14U A16G	0.09
A14U A16C	0.1
A14U A16U	0.1
A14G G36C	0.07
A14G G36A	0.26
A14G G36U	0.12
A14C G36C	0.02
A14C G36U	0.09
A14C G36A	0.15
A14G G22A	0.34
A14G G22C	0.31
A14G G22U	0.98
A14G A26U	0.59
A14G A26C	0.67
A14G A26G	0.43
A14C G19U	0.1
A14C G19C	0.03
A14C G19A	0.1
A14C U32G	0.07
A14C U32A	0.07
A14C U32C	0.08

Variant	self-cleavage
A14C U38A	0.21
A14C U38C	0.07
A14C U38G	0.02
A14C U20C	0.08
A14C U20A	0.08
A14C U20G	0.1
A14C G22C	0.1
A14C G22A	0.18
A14C G22U	0.06
A14G	0.58
A14U	0.45
A14G G27U	0.42
A14G G27A	0.83
A14G G27C	0.61
A14C C37U	0.02
A14G C46U	0.26
A14G C46A	0.2
A14G C46G	0.14
A14G A24U	0.43
A14G A24C	0.27
A14G A24G	0.76
A14G C42G	0.04
A14G C42A	0.08
A14G C42U	0.21

Variant	self-cleavage
A14G C18A	0.2
A14G C18U	0.42
A14G C18G	0.21
A14C G21A	0.17
A14C G21U	0.07
A14C G21C	0.05
A14G U20C	0.78
A14G U20G	0.15
A14G U20A	0.23
A14C C45A	0.08
A14C C45U	0.08
A14C C45G	0.11
A14C G30U	0.07
A14C G30C	0.07
A14C G30A	0.21
A14G U43G	0.11
A14G U43C	0.06
A14G U43A	0.05
A14G G44U	0.19
A14G G44A	0.22
A14G G44C	0.19
A14G G33U	0.16
A14G G33A	0.07
A14G G33C	0.03

Variant	self-cleavage
A14C G40U	0.07
A14C G40C	0.04
A14C G40A	0.09
A14G A16U	0.06
A14G A16C	0.08
A14G A16G	0.1
A14G C45G	0.2
A14G C45U	0.63
A14G C45A	0.38
A14G C37U	0.19
A14G C37G	0.04
A14G C37A	0.07
A14C G17A	0.08
A14C G17C	0.04
A14C G17U	0.28
A14C G29A	0.29
A14C G29U	0.13
A14C G29C	0.04
A14G C23A	0.53
A14G C23G	0.45
A14G C23U	0.85
A14C C42G	0.07
A14C C42A	0.07
A14C C42U	0.07

Variant	self-cleavage
A14U A24C	0.15
A14U A24G	0.79
A14G U34A	0.16
A14G U34C	0.61
A14G U34G	0.3
A14G A25C	0.18
A14G A25U	0.53
A14G A25G	0.32
A14G U32A	0.06
A14G U32G	0.04
A14G U32C	0.08
A14G A41G	0.16
A14G A41C	0.05
A14G A41U	0.77
A14G G21C	0.24
A14G G21U	0.79
A14G G21A	0.71
A14G A39C	0.39
A14G A39U	0.37
A14G A39G	0.1
A14C U43A	0.2
A14C U43G	0.01
A14C U43C	0.04
A14C G27C	0.07

Variant	self-cleavage
A14C G27U	0.09
A14C G27A	0.09
A14C G35A	0.09
A14C G35U	0.07
A14C G35C	0.04
A14C C46G	0.08
A14C C46A	0.13
A14C C46U	0.18
A14C U28G	0.07
A14C U28C	0.07
A14C U28A	0.03
A14G U28A	0.39
A14G U28C	0.04
A14G U28G	0.3
A14G U38A	0.52
A14G U38C	0.15
A14G U38G	0.01
A14G G30A	0.28
A14G G30U	0.34
A14G G30C	0.24
A14G G29U	0.29
A14G G29A	0.78
A14G G29C	0.37
